Where “and” joins values, the source holds several entries; their conditions need not be identical. Identical values can stand only once.
B1: His‐GFP‐spMis18fl, recombinant full‐length S. pombe Mis18 (natural protein, Schizosaccharomyces pombe, UniProt Q9P802 1-194, looked up)
chain: MSQTETSHSGYIDFKKESQPSVFQCKKCFQIVGDSNAWVISHREYLSFTLSDAVENSVRVEDTFKRSDDGLCVYSELSCTRCNEVIGKVYNSTPIYLDDIRDMYTFSMDKLQAYQLGNKTVNPEGLTRYQVDLEMREDIIKLKSFCLSLYEKFELHDETLRSVKETISSLKKPKIEGKEGKKEKARTYSKRTRK
B2: His‐hsMis18α_(77–187), Yippee‐like globular domain of human Mis18α (domain or fragment, UniProt Q9NYP9 77-187, looked up)
chain: EERPLVFLCSGCRRPLGDSLSWVASQEDTNCILLRCVSCNVSVDKEQKLSKREKENGCVLETLCCAGCSLNLGYVYRCTPKNLDYKRDLFCLSVEAIESYVLGSSEKQIVS
B3: His‐spMis18ΔC (amino acids 1–168) (domain or fragment, Schizosaccharomyces pombe, UniProt Q9P802 1-168, looked up)
chain: MSQTETSHSGYIDFKKESQPSVFQCKKCFQIVGDSNAWVISHREYLSFTLSDAVENSVRVEDTFKRSDDGLCVYSELSCTRCNEVIGKVYNSTPIYLDDIRDMYTFSMDKLQAYQLGNKTVNPEGLTRYQVDLEMREDIIKLKSFCLSLYEKFELHDETLRSVKETIS
B4: His‐GFP‐spMis18_(C‐term‐α), C‐terminal α‐helical domain of S. pombe Mis18 (domain or fragment, Schizosaccharomyces pombe, UniProt Q9P802 121-194, looked up)
chain: VNPEGLTRYQVDLEMREDIIKLKSFCLSLYEKFELHDETLRSVKETISSLKKPKIEGKEGKKEKARTYSKRTRK
B5: His‐spMis18_(1–120), N‐terminal Yippee‐like globular domain of S. pombe Mis18 (domain or fragment, Schizosaccharomyces pombe, UniProt Q9P802 1-120, looked up)
chain: MSQTETSHSGYIDFKKESQPSVFQCKKCFQIVGDSNAWVISHREYLSFTLSDAVENSVRVEDTFKRSDDGLCVYSELSCTRCNEVIGKVYNSTPIYLDDIRDMYTFSMDKLQAYQLGNKT

Assays:
[1] = target: the molecule itself; assay: SEC-MALS; room temperature; 100 μl of protein at 1 mg/ml; 50 mM HEPES pH 8, 300 mM NaCl, 1 mM TCEP
[2] = target: hsMis18β_(56–183), Yippee‐like globular domain of human Mis18β (human, UniProt O43482 56-183); assay: SEC-MALS; room temperature; 100 μl of protein at 1 mg/ml; 50 mM HEPES pH 8, 150 mM NaCl, 5 mM DTT; elution volumes of SEC also told; conditions: both partners purified
Sequence of hsMis18β_(56–183), Yippee‐like globular domain of human Mis18β (O43482 56-183): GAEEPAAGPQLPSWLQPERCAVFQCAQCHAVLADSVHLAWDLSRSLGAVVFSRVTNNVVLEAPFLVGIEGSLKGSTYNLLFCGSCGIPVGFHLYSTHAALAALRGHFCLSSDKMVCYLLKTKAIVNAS

[3] = target: the molecule itself; assay: as above
[4] = target: the molecule itself; assay: SEC-MALS; room temperature; 100 μl of protein at 1 mg/ml; 50 mM HEPES pH 8, 50 mM NaCl, 5 mM DTT

Binder | stoichiometry N [3] | other results
B1 |  | stoichiometry N [1]: 4 and 2
B2 | 2 | stoichiometry N [2]: 1
B3 |  | stoichiometry N [4]: 2 and 4
B4 | 3 | 
B5 | 2 | 
